Assay results published in patent US20250136720A1 (Boehringer Ingelheim, published 2025).

Tests used:
[1] = target: T1, Human CD137 on Jurkat cells (human, UniProt Q07011 24-255); experiment: flow cytometry, Jurkat cells;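 further: binding of antibody-containing supernatants to NF-kB-Luc2/4-1BB Jurkat cells, detected by flow cytometry with a PE-labelled anti-human IgG-Fc secondary antibody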
T1 construct: whole, on cells; also called full-length human CD137-expressing Jurkat cell line; NF-kB-Luc2/4-1BB Jurkat
Description: Briefly, HTP supernatants containing recombinant IgG1 (KO) antibodies, were assayed by flow cytometry for binding to the NF-kB-Luc2/4-1BB Jurkat cell line. […] The cells were washed x3 with staining buffer. A Goat F(ab′)2 anti-human IgG-Fc PE secondary antibody was added to the cells and the plate was incubated for 30 min at 4° C. The cells were wash ×3 with staining buffer.

[2] = target: T2, Murine Fibroblast Activation Protein (FAP) on B16 cells (mouse, UniProt P97321 1-761); experiment: flow cytometry, scFv-Fc on B16-FAP cells
T2 construct: B16 cells transduced with murine FAP cDNA; also called B16-FAP

[3] = target: T3, Human Fibroblast Activation Protein (FAP) on HT1080 cells (human, UniProt Q12884 1-760); experiment: flow cytometry, scFv-Fc on HT1080-FAP cells
T3 construct: HT1080 cells transduced with human FAP cDNA; also called HT1080-FAP; FAP+ HT1080

T2 sequence (P97321 other isoform, or with tags, fused parts or gaps): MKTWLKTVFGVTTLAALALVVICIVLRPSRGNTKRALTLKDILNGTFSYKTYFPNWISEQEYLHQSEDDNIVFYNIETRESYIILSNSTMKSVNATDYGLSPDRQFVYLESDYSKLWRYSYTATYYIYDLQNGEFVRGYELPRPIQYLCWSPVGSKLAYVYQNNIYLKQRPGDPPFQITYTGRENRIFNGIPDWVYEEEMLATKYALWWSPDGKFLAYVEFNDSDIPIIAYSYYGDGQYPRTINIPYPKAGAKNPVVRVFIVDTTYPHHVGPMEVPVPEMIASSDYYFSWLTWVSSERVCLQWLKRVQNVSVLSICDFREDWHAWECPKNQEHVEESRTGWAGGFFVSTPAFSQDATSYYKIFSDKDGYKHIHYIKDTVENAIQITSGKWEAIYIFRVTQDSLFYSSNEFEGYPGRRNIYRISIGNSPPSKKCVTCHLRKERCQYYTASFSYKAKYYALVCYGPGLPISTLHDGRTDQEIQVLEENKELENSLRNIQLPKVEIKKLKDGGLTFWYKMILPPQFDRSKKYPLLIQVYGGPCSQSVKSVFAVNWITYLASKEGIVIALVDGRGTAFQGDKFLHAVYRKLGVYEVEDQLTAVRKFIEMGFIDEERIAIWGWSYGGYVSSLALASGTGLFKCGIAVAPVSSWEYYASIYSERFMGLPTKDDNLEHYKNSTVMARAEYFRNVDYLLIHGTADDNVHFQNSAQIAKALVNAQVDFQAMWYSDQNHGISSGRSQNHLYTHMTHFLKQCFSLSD

Binder | binding result [1] | MFI [2] [MFI] | MFI [3] [MFI]
CD137 #A26 (antibody, human IgG1, V domains shown, human IgG1 KO (L234A/L235A)/kappa chimeric IgG) VH: EVQLQESGPSLVKPSQTLSLTCSVTGDSITSGYWNWNRKFPGNKFEYMGYISYSDSAYYNPSLKSRISITRDTSKNQYYLQLNSVTTEDTATYYCTRWGIPFAFWGQGTLVTVSA VL: DIKMTQSPSSMYASLGERVTITCKASQDIDSYLYWFQQKPGKSPETLIYHANRLVDGVPSRFSGSGSGQDYSLTISSLEYEDMGIYYCLQYDEFPYTFGGGTKLEIK | binds |  | 
CD137 #A27 (antibody, human IgG1, V domains shown, human IgG1 KO (L234A/L235A)/kappa chimeric IgG) VH: QVQLQQSGAELTRPGASVKLSCKASGYTFTNYWIQWIKQRPGQGLEWIGTIYPENGDTRYTQKFKGKATLTADKSSSTAYMQLSSLASEDSAVYYCARGLLEGAHYWGQGTTLTVSS VL: DILLTQSPAILSVSPGERVSFSCRASQSIGASIHWYQQRTNGSPRLLIKFSSESISGIPSRFSGSGSGTDFTLTINSVESEDIADYYCQQTNSWPTAFGGGTKLEMK | binds |  | 
FAP.63.G3 (Fc fusion, Tested as scFv-Fc; orientation, linker and Fc not specified; also called FAP.63.C3; FAP 63.C3) VH: DVQLVESGGGVVRPGESLTLSCAASGFTFSNYDMGWVRQAPGEGLEWVSGIRGRGGSTYYADSVKGRFTISRDSSKNTLYLQMNSLRAEDTAVYYCAKENNRHSFFEYWGLGTLVTVSS VL: EIVLTQSPGTLSLSPGERATLSCRASQSVGHYLAWYQQKPGQAPRLLIYDASNRAIDIPDRFSGSGSGTEFTLTISRLEPEDFAVYYCQQYYNNWPPLTFGGGTKVEIK |  | 1410 | 72800
FAP.63.H3 (Fc fusion, Tested as scFv-Fc; orientation, linker and Fc of this construct not specified) VH: not shown VL: EIVLTQSPGTLSLSPGERATLSCRASQSVGYYLAWYQQKPGQAPRLLIYDASDRATAIPDRFSGSGSGTEFTLTISRLEPEDFAVYYCQQYYNNWPPLTFGGGTKVEIK |  | 2830 | 75000
CD137 #A16 (antibody, human IgG1, V domains shown, human IgG1 KO (L234A/L235A)/kappa chimeric IgG) VH: QVQLQQPGAELVKPGASVKLSCKASGYTFTNFWINWVKQRPGQALEWIGNIYPGNDNTNYNGNFKTKATLTVDRSSSTAYMHLSSLTSKDSAVYYCARGQLGLDYWGQGTTLTVSS VL: DILLTQSPAILSVSPGERVSFSCRASQNIGTTIHWYHQRTNGSPRLLIKFASESISGIPSRFSGSGSGTDFTLSINSVESEDFADYYCQQSNSWPFTFGSGTKLEIK | binds |  | 
CD137 #B2 (antibody, human IgG1, V domains shown, human IgG1 KO (L234A/L235A)/kappa chimeric IgG) VH: QVQLQQPGAELVKPGASVKLSCKASGYTFTNFWINWVKQRPGQGLEWIGNIYPGNTGTNYNERFKTKATLTVDISSSTAYMRLSSLTSEDSAVYYCARGQLGLDYWGQGTTLTVSS VL: DILLTQSPAILSVSPGERVSFSCRASQIIGTTIQWYQQRTNGSPRLLIKYASESLSGIPSRFSGSGSGTDFTLSINNVESEDIADYYCQQSHSWPFTFGSGTKLEIK | binds |  | 
CD137 #A17 (antibody, human IgG1, V domains shown, human IgG1 KO (L234A/L235A)/kappa chimeric IgG) VH: QVQLQQPGAELVKPGASVKLSCKASGYTFTNFWINWVKQRPGQALEWIGNIYPGNDNTNYNGNFKSKATLTVDRSSSTAYMHLSSLTSKDSAVYYCARGQLGLDYWGQGTTLTVSS VL: DILLTQSPAILSVSPGERVSFSCRASQNIGTAIHWYHQRTNGSPRLLIKFASESISGIPSRFSGSGSGTDFTLSINSVESEDFADYYCQQSNSWPFTFGSGTKLEIK | binds |  | 
CD137 #B20 (antibody, human IgG1, V domains shown, human IgG1 KO (L234A/L235A)/kappa chimeric IgG) VH: EVKLVESEGGLVQPGSSMKLSCTASGFTFSDFYMAWVRQVPEKGLEWVANINYDGSSTYYLDSLKSRFIISRDNARNILYLQMSSLKSEDTATYYCAREGDEGWYFDVWGAGTTVTVSS VL: DIVMTQSHKFMSTSVGDRVSITCKASQDVSTAVAWYQQKPGQSPKLLIYSASYRYTGVPDRFTGSGSGTDFTFTISSVQAEDLAVYYCQQHYSNPWTFGGGTKLEIK | binds |  | 
CD137 #B21 (antibody, human IgG1, V domains shown, human IgG1 KO (L234A/L235A)/kappa chimeric IgG; also called CD137 #1; B21 parent) VH: EVKLVESEGGLVQPGSSMKLSCTASGFTFSDFYMAWVRQVPEKGLEWVANINYDGSSTYYLDSLKSRFIISRDNARNILYLQMSSLKSEDTATYYCAREGDEGWYFDVWGAGTTVTVSS VL: DIVMTQSHKFMSTSVGDRVSITCKASQDVSTAVAWYQQKPGQSPKLLIYSASYRYTGVPDRFTGSGSGTDFTFTISSVQAEDLAVYYCQQHYSNPWTFGGGTKLEIK | binds |  | 
FAP.84.A11 (Fc fusion, Tested as scFv-Fc; orientation, linker and Fc of this construct not specified) VH: DVQLVESGGGLVQPGGSLRLSCAASGFSMSNFAMTWVRQAPGEGLEWVSGIRGSGTTYYADSVKGRFTVSRDNSKNTLYLQMNSLRAEDTAIYYCAKTWGTEYFDYWGLGTLVTVSS VL: EIVLTQSPGTLSLSPGERATLSCRASQPINNYLAWYQQKPGQAPRLLIFSASNRATGIPDRFSGSGSGTEFTLTISSLEPEDFAVYYCQQYYDWPPYTFGGGTKVEIK |  | 1410 | 27300
CD137 #A25 (antibody, human IgG1, V domains shown, human IgG1 KO (L234A/L235A)/kappa chimeric IgG) VH: DVQLVESGGGLVQPGGSRKLSCAASGFSFSSFGMHWVRQAPEKGLEWVAYISSGSSTIYYADTVKGRFTISRDNPKNTLFLQMTSLRSEDTAMYYCVRDWTDYWGQGTTLTVST VL: QIVLTQSPAIMSASLGEEITLTCSATSSVSYMHWSQQKSGTSPKLLIYTTSNLASGVPSRFSGSGSGTFYSLTISSVEAEDAADYYCHQWTTYPWTFGGGTKLEIK | binds |  | 
CD137 #B4 (antibody, human IgG1, V domains shown, human IgG1 KO (L234A/L235A)/kappa chimeric IgG) VH: DVQLQESGPGLVKPSQSLSLTCTVTGYSITSDYAWNWIRQFPGNRLEWMGYISYSGSTSYNPSLKSRISITRDTSKNQFFLQLNSVTTEDTATYFCARWGYVLDYWGQGTSVTVSS VL: DIVMTQSHKFMSTSEGDRVSITCKASQDVSTAVAWYQQKPGQSPKLLIYWASTRHTGVPDRFRGSGSGTDYTLTISSVQAEDLALYFCQQHYFTPYTFGGGTKLEIK | binds |  | 
CD137 #B7 (antibody, human IgG1, V domains shown, human IgG1 KO (L234A/L235A)/kappa chimeric IgG) VH: EVQLQESGPSLVKPSQTLSLTCSVTGDSITSGYWNWIRKFPGNKLEFMGYITYSGSTYYNPSLKSRISITRDTSRNQFYLQVNSVTTEDTATYFCTRYYYYGSTYYAMDYWGQGTSVTVSS VL: NIVLTQSPASLAVSLGQRATISCRVSESVDSYGNSFMHWFQQKPGQSPKLLIYLASNLESGVPARFSGSGSRTDFTLTIDPVEADDAATYYCQQNIEDPPTFGGGTKLEIK | binds |  | 
FAP.63.D7 (Fc fusion, Tested as scFv-Fc; orientation, linker and Fc of this construct not specified) VH: DVQLVESGGGVVRPGESLRLSCAASGFTFSSYAMSWVRQTPGEGLEWVSFISSGGAYTHYTDSVKGRFTISRDNSKNTLYLQMNSLRAEDTAVYYCAKEKEIWNAFFDYWGLGTLVTVSS VL: EIVLTQSPATLNLSPGDRATLTCRASQTVGSKLAWYQQTSGQAPRLLIYDASSRATGIPDRFSGSGSGTEFTLTISSLEPEDFAVYVCQQYYDWPPLTFGGGTKVEIK |  | 3360 | 49100
CD137 #A42 (antibody, V domains shown, human IgG1 KO (L234A/L235A)/kappa chimeric IgG) VH: QVQLQQSGPGLVKPSQTLSLTCAISGDSVSSNSAAWNWIRQSPSRGLEWLGRTYYRSNWYNDYAVSVESRITIKPDTSKNQFSLQLNSVTPEDTAVYYCARMDSGTYLDAFDIWGQGTMVTVSS VL: EIVMTQSPATLSVSPGERATLSCRASQSVGRNLAWYQQKPGQTPRLLIYGASTRATGIPAIFSGSGSGTEFTLTISSLQSEDFAVYYCQQYNYWPPFTFAQGTKLEIK | binds |  | 

Further lines, results first:

binding result [1] | MFI [2] [MFI] | MFI [3] [MFI] | Binder
binds |  |  | CD137 #B13 (antibody, human IgG1, V domains shown, human IgG1 KO (L234A/L235A)/kappa chimeric IgG) VH: QVQLQQPGAELVKPGASVKLSCKASGYTFTNFWINWVKQRPGQALEWIGNIYPGNDNTNYNGNFKTKATLTVDRSSSTAYMHLSSLTSKDSAVYYCARGQLGLDYWGQGTTLTVSS VL: DILLTQSPAILSVSPGERVSFSCRASQNIGTTIHWYHQRTNGSPRLLIKFASESISGIPSRFSGSGSGTDFTLSINSVESEDFADYYCQQSNSWPFTFGSGTKLEIK
binds |  |  | CD137 #B1 (antibody, human IgG1, V domains shown, human IgG1 KO (L234A/L235A)/kappa chimeric IgG) VH: QVQLQQPGAELVKPGASVKLSCKASGYTFTNFWINWVKQRPGQALEWIGNIYPGNDNTNYNGNFKTKATLTVDRSSSTAYMHLSSLTSKDSAVYYCARGQLGLDYWGQGTTLTVSS VL: DILLTQSPAILSVSPGERVSFSCRASQNIGTTIHWYHQRTNGSPRLLIKFASESISGIPSRFSGSGSGTDFTLSINSVESEDFADYYCQQSNSWPFTFGSGTKLEIK
binds |  |  | CD137 #A49 (antibody, human IgG1, V domains shown, human IgG1 KO (L234A/L235A)/kappa IgG; also called CD137 #7; A49 Parent) VH: QVQLQESGPGLVKPSETLSLTCTVSGGSISSYYWSWIRQPPGKGLEWIGYIYYSGSTNYNPSLKSRVTISVDTSKNQFSLKLSSVTAADTAVYYCARDQSGGGSFQHWGQGTLVTVSS VL: EIVMTQSPLSLPVTPGEPASISCRSSQSLLYSNGYNHLDWYLQKPGQSPQLLIYLGSNRASGVPDRFSGSGSGTDFTLKISRVEAEDVGVYYCMQALQTPPTFGQGTKLEIK
 | 1840 | 35600 | FAP.65.F1 (Fc fusion, Tested as scFv-Fc; orientation, linker and Fc of this construct not specified) VH: DVQLVESGGGLVHPGGSLRLSCAASTFTFANYIMSWVRQAPGKGLEWVSGITGSSTNTYYTDSVKGRFTISRDNSKNTLYLEMNSLRAEDTAVYYCAKHQLYPYYAMDVWGQGTTVTVSS VL: EIVLTQSPGSLSLSPGERATLSCRASQPIDSYLAWYQQKPGQAPRLLIYGASTRATDIPDRFSGSGSGTEFTLTISSLQSEDFAVYYCQQYYDWPPVTFGGGTKVEIK
binds |  |  | CD137 #B27 (antibody, human IgG1, V domains shown, human IgG1 KO (L234A/L235A)/kappa chimeric IgG) VH: QVQLQQSGAELVRPGASVKISCKAFGYTFTNHHINWVKQRPGQGLDWIGYINPYNDYSGYNQKFKGRATLTVDKSSNTAYMELSSLTSEDSAVYYCATPGTWEGYYFDYWGQGTTLTVSS VL: DVVMTQTPLSLPVSLGDQASISCRSSQSLVHSNGNTYLEWYLQKPGQSPKVLIYMVSNRFSGVPDRFSGSGSGTDFTLKISRVEAEDLGVYYCFQGSHIPLTFGAGTKLELK
binds |  |  | CD137 #A39 (antibody, human IgG1, V domains shown, human IgG1 KO (L234A/L235A)/kappa chimeric IgG) VH: QVQLQQSGAELMKPGSSVKLSCKAPGYKFTDYWIEWVKQRPGHGLDWIGNILPGTINTNSNENFKGKATFTADTSSNTAYMQLSSLTSEDSAVYYCARRSLEYYFDYWGQGTTLTVSS VL: DIVVTQSPASLAVSLGQRATISCRASQSVSTSRYSYMHWYQQKPGQPPRLLINYASNLESGVPARFSGSGSGTDFTLNIHPVEEEDTATYYCQHTWEIPWTFGGGTKLEIK
